Where two headings read alike, the source gives them in different places.
How the values were obtained:
CLOCK:BMAL1 heterodimer = CLOCK:BMAL1 heterodimer (mouse, UniProt O08785;Q9WTL8); test: native gel or EMSA
[1] = molecular target: T1, CLOCK (co-expressed with BMAL1);BMAL1 (Mus musculus;Mus musculus, UniProt O08785;Q9WTL8 1-855;1-632, |); test: EMSA
[2] = molecular target: CLOCK (co-expressed with BMAL1);BMAL1;hCRY1 (Mus musculus;Mus musculus;Homo sapiens, UniProt O08785;Q9WTL8;Q16526 1-855;1-632;1-586, ||); test: EMSA
BMAL1 = BMAL1 (Mus musculus, UniProt Q9WTL8 1-632); test: EMSA
CRY1 = molecular target: T2, CRY1 (Mus musculus, UniProt P97784 1-606); test: EMSA
T2 sequence: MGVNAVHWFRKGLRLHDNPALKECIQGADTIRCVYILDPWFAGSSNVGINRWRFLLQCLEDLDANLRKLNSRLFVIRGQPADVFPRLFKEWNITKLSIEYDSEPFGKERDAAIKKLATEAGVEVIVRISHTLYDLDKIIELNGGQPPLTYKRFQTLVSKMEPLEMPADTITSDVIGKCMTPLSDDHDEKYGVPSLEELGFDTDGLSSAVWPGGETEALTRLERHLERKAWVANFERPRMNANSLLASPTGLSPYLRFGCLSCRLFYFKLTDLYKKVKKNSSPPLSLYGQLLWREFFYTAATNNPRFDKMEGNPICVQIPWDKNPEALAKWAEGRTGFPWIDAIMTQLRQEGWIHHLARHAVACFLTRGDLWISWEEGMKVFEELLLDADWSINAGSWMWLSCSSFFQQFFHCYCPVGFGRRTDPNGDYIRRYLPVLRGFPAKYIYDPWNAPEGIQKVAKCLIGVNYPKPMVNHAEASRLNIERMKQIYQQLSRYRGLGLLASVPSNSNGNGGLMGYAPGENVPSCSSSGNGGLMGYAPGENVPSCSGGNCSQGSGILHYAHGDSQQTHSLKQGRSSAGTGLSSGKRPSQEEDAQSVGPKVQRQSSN

[3] = molecular target: T3, CLOCK (co-expressed with BMAL1);BMAL1;CRY1 (Mus musculus;Mus musculus;Mus musculus, UniProt O08785;Q9WTL8;P97784 1-855;1-632;1-606, ||); test: EMSA supershift
[4] = molecular target: CLOCK (co-expressed with BMAL1);BMAL1;CRY2 (Mus musculus;Mus musculus;Mus musculus, UniProt O08785;Q9WTL8;Q9R194 1-855;1-632;1-592, ||); test: EMSA supershift
PER2 = PER2 (mouse, UniProt O54943 1-1257); test: co-IP
[5] = molecular target: T1, CLOCK (co-expressed with BMAL1);BMAL1; test: EMSA; remark: listed apart in the source
[6] = molecular target: T3, CLOCK (co-expressed with …); test: EMSA supershift; remark: listed apart in the source

CLOCK:BMAL1 heterodimer, sequence (Q9WTL8 whole entry, one chain of several): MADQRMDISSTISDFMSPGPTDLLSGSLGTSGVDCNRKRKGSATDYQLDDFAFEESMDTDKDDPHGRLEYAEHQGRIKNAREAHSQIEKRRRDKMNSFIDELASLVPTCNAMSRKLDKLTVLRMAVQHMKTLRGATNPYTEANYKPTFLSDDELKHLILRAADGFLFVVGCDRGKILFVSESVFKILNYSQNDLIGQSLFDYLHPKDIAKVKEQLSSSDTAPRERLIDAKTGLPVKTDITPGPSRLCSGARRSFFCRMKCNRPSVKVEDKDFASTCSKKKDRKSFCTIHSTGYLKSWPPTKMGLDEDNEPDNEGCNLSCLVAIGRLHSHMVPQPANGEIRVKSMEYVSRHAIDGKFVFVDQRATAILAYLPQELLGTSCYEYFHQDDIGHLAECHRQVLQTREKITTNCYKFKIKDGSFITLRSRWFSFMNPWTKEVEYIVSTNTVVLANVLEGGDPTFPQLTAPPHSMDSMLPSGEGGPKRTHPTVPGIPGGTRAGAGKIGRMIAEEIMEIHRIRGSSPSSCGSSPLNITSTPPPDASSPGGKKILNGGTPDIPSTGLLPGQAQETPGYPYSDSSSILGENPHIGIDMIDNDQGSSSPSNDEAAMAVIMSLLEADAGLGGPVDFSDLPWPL
T1 sequence (Q9WTL8 whole entry, one chain of several): as above
T3 sequence (Q9WTL8 whole entry, one chain of several): as above
PER2, sequence (O54943 whole entry): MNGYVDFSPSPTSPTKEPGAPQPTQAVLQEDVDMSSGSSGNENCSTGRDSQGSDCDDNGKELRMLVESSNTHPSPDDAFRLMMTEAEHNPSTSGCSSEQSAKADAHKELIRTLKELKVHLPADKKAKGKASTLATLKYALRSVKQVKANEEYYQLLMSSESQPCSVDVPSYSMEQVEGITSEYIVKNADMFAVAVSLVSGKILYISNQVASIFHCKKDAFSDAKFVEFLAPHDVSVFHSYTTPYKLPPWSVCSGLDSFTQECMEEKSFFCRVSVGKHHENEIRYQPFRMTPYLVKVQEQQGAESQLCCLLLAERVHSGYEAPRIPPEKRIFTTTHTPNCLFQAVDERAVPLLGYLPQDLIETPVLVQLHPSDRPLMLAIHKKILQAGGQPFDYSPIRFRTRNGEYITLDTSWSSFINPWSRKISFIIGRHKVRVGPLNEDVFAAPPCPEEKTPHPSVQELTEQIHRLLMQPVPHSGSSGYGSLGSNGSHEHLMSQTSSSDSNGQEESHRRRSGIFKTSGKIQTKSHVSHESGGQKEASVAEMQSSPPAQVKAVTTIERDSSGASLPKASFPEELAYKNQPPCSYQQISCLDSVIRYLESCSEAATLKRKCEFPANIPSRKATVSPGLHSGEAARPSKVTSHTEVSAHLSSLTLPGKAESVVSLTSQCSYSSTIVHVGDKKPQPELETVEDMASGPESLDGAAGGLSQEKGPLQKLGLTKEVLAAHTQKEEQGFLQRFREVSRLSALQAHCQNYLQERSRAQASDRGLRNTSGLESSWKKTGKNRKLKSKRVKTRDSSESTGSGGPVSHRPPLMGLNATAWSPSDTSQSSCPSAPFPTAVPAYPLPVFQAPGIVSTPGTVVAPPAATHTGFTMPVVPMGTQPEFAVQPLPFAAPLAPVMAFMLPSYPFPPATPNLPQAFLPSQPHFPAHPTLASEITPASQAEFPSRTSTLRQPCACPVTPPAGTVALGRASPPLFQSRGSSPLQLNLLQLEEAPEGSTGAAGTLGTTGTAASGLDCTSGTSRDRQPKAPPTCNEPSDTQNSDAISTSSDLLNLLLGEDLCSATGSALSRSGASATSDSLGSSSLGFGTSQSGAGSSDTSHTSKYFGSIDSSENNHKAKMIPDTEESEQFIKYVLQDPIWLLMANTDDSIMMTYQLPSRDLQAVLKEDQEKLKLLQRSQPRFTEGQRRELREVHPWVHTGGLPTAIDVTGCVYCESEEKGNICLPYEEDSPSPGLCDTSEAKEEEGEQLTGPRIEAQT
CLOCK (co-expressed with BMAL1);BMAL1;CRY2, sequence (Q9WTL8 whole entry, one chain of several): as the sequence (Q9WTL8 whole entry, one chain of several) above
BMAL1, sequence (Q9WTL8 whole entry): as the sequence (Q9WTL8 whole entry, one chain of several) above
CLOCK (co-expressed with BMAL1);BMAL1;hCRY1, sequence (Q9WTL8 whole entry, one chain of several): as above

B1: CRY2 (natural protein)
chain: MAAAAVVAATVPAQSMGADGASSVHWFRKGLRLHDNPALLAAVRGARCVRCVYILDPWFAASSSVGINRWRFLLQSLEDLDTSLRKLNSRLFVVRGQPADVFPRLFKEWGVTRLTFEYDSEPFGKERDAAIMKMAKEAGVEVVTENSHTLYDLDRIIELNGQKPPLTYKRFQALISRMELPKKPAVAVSSQQMESCRAEIQENHDDTYGVPSLEELGFPTEGLGPAVWQGGETEALARLDKHLERKAWVANYERPRMNANSLLASPTGLSPYLRFGCLSCRLFYYRLWDLYKKVKRNSTPPLSLFGQLLWREFFYTAATNNPRFDRMEGNPICIQIPWDRNPEALAKWAEGKTGFPWIDAIMTQLRQEGWIHHLARHAVACFLTRGDLWVSWESGVRVFDELLLDADFSVNAGSWMWLSCSAFFQQFFHCYCPVGFGRRTDPSGDYIRRYLPKLKGFPSRYIYEPWNAPESVQKAAKCIIGVDYPRPIVNHAETSRLNIERMKQIYQQLSRYRGLCLLASVPSCVEDLSHPVAEPGSSQAGSISNTGPRALSSGPASPKRKLEAAEEPPGEELTKRARVTEMPTQEPASKDS
- binding result (CLOCK:BMAL1 heterodimer): binds

B2: M34 (dsDNA)
DNA 1: GGGACACGTGACCC
DNA 2: GGGTCACGTGTCCC
- binding result [1]: binds
- binding result [2]: binds
- binding result (BMAL1): binds
- binding result (CRY1): no binding
- binding result [3]: binds
- binding result [4]: binds

B3: CLOCK (natural protein)
chain: MVFTVSCSKMSSIVDRDDSSIFDGLVEEDDKDKAKRVSRNKSEKKRRDQFNVLIKELGSMLPGNARKMDKSTVLQKSIDFLRKHKETTAQSDASEIRQDWKPTFLSNEEFTQLMLEALDGFFLAIMTDGSIIYVSESVTSLLEHLPSDLVDQSIFNFIPEGEHSEVYKILSTHLLESDSLTPEYLKSKNQLEFCCHMLRGTIDPKEPSTYEYVRFIGNFKSLTSVSTSTHNGFEGTIQRTHRPSYEDRVCFVATVRLATPQFIKEMCTVEEPNEEFTSRHSLEWKFLFLDHRAPPIIGYLPFEVLGTSGYDYYHVDDLENLAKCHEHLMQYGKGKSCYYRFLTKGQQWIWLQTHYYITYHQWNSRPEFIVCTHTVVSYAEVRAERRRELGIEESLPETAADKSQDSGSDNRINTVSLKEALERFDHSPTPSASSRSSRKSSHTAVSDPSSTPTKIPTDTSTPPRQHLPAHEKMTQRRSSFSSQSINSQSVGPSLTQPAMSQAANLPIPQGMSQFQFSAQLGAMQHLKDQLEQRTRMIEANIHRQQEELRKIQEQLQMVHGQGLQMFLQQSNPGLNFGSVQLSSGNSNIQQLTPVNMQGQVVPANQVQSGHISTGQHMIQQQTLQSTSTQQSQQSVMSGHSQQTSLPSQTPSTLTAPLYNTMVISQPAAGSMVQIPSSMPQNSTQSATVTTFTQDRQIRFSQGQQLVTKLVTAPVACGAVMVPSTMLMGQVVTAYPTFATQQQQAQTLSVTQQQQQQQQQPPQQQQQQQQSSQEQQLPSVQQPAQAQLGQPPQQFLQTSRLLHGNPSTQLILSAAFPLQQSTFPPSHHQQHQPQQQQQLPRHRTDSLTDPSKVQPQ
- binding result (PER2): binds

B4: human CRY1 (natural protein)
chain: MGVNAVHWFRKGLRLHDNPALKECIQGADTIRCVYILDPWFAGSSNVGINRWRFLLQCLEDLDANLRKLNSRLFVIRGQPADVFPRLFKEWNITKLSIEYDSEPFGKERDAAIKKLATEAGVEVIVRISHTLYDLDKIIELNGGQPPLTYKRFQTLISKMEPLEIPVETITSEVIEKCTTPLSDDHDEKYGVPSLEELGFDTDGLSSAVWPGGETEALTRLERHLERKAWVANFERPRMNANSLLASPTGLSPYLRFGCLSCRLFYFKLTDLYKKVKKNSSPPLSLYGQLLWREFFYTAATNNPRFDKMEGNPICVQIPWDKNPEALAKWAEGRTGFPWIDAIMTQLRQEGWIHHLARHAVACFLTRGDLWISWEEGMKVFEELLLDADWSINAGSWMWLSCSSFFQQFFHCYCPVGFGRRTDPNGDYIRRYLPVLRGFPAKYIYDPWNAPEGIQKVAKCLIGVNYPKPMVNHAEASRLNIERMKQIYQQLSRYRGLGLLASVPSNPNGNGGFMGYSAENIPGCSSSGSCSQGSGILHYAHGDSQQTHLLKQGRSSMGTGLSGGKRPSQEEDTQSIGPKVQRQSTN
- binding result (CLOCK:BMAL1 heterodimer): binds

B5: CRY1 (natural protein)
chain: T2 sequence
- binding result (CLOCK:BMAL1 heterodimer): binds

B6: Myc-CRY1 (natural protein)
chain: T2 sequence
- binding result (CLOCK:BMAL1 heterodimer): binds

B7: P2GS 60-bp duplex (dsDNA)
DNA 1: CATCACCCACTCACCCCTTAACGACACGTGGGCCCTCAATTGCCCTTCTCTCAGGATCTG
DNA 2: CAGATCCTGAGAGAAGGGCAATTGAGGGCCCACGTGTCGTTAAGGGGTGAGTGGGTGATG
- binding result [5]: binds
- binding result [6]: binds

Source: article PMC3138243 (The Journal of Biological Chemistry, 2011)
